B1: LINE1-mini (parent)
chain: GGCAGAGCUCAACACAGCGUGGCAAAGUGGCUGUGGCUAGACUGCC

Variants of: B1
Assay: self-cleavage, relative activity (ratio to wild type); higher = more cleavage; in vitro, sequencing; the parent is a self-cleaving ribozyme
For GGCAGAGCUCACCACAGCGUGGCAAGGUGGCUGUGGCUAGACUGCC [A12C A26G], the self-cleavage was 0.01.
For GGCAGAGCUCACCACAGCGUGGCAAUGUGGCUGUGGCUAGACUGCC [A12C A26U], the self-cleavage was 0.03.
For GGCAGAGCUCACCACAGCGUGGCAACGUGGCUGUGGCUAGACUGCC [A12C A26C], the self-cleavage was 0.02.
With GGCAGAGCUCACGACAGCGUGGCAAAGUGGCUGUGGCUAGACUGCC [A12C C13G] the self-cleavage was 0.04.
GGCAGAGCUCACAACAGCGUGGCAAAGUGGCUGUGGCUAGACUGCC [A12C C13A] gave a self-cleavage of 0.08.
Variant GGCAGAGCUCACUACAGCGUGGCAAAGUGGCUGUGGCUAGACUGCC [A12C C13U] has a self-cleavage of 0.01.
Work on GGCAGAGCUCUACACAGCGUGGCAAAGUGGCUGUGGCCAGACUGCC [A11U U38C] yielded a self-cleavage of 0.05.
In the case of GGCAGAGCUCUACACAGCGUGGCAAAGUGGCUGUGGCGAGACUGCC [A11U U38G], the self-cleavage is reported as 0.01.
With GGCAGAGCUCUACACAGCGUGGCAAAGUGGCUGUGGCAAGACUGCC [A11U U38A] the self-cleavage was 0.07.
In the case of GGCAGAGCUCUACACAGCGUGGCAAAGUGGCUGUGGCUAGACUGUC [A11U C45U], the self-cleavage is reported as 0.23.
GGCAGAGCUCUACACAGCGUGGCAAAGUGGCUGUGGCUAGACUGAC [A11U C45A] showed a self-cleavage of 0.05.
Variant GGCAGAGCUCUACACAGCGUGGCAAAGUGGCUGUGGCUAGACUGGC [A11U C45G] has a self-cleavage of 0.04.
GGCAGAGCUCACCGCAGCGUGGCAAAGUGGCUGUGGCUAGACUGCC [A12C A14G] gave a self-cleavage of 0.04.
With GGCAGAGCUCACCUCAGCGUGGCAAAGUGGCUGUGGCUAGACUGCC [A12C A14U] the self-cleavage was 0.05.
Variant GGCAGAGCUCACCCCAGCGUGGCAAAGUGGCUGUGGCUAGACUGCC [A12C A14C] has a self-cleavage of 0.02.
GGCAGAGCUCUACACAGCGUGGCAAAGUGGCUGUGGUUAGACUGCC [A11U C37U] gave a self-cleavage of 0.01.
GGCAGAGCUCUACACAGCGUGGCAAAGUGGCUGUGGGUAGACUGCC [A11U C37G] showed a self-cleavage of 0.02.
Variant GGCAGAGCUCUACACAGCGUGGCAAAGUGGCUGUGGAUAGACUGCC [A11U C37A] has a self-cleavage of 0.02.
Variant GGCAGAGCUCUACACAGCGUGGCAAAGUGGCUGUGGCUAGACGGCC [A11U U43G] has a self-cleavage of 0.
Variant GGCAGAGCUCUACACAGCGUGGCAAAGUGGCUGUGGCUAGACCGCC [A11U U43C] has a self-cleavage of 0.04.
With GGCAGAGCUCUACACAGCGUGGCAAAGUGGCUGUGGCUAGACAGCC [A11U U43A] the self-cleavage was 0.02.
With GGCAGAGCUCACCACAGCGUGGCAAAGUGGCUGUGGCUAGGCUGCC [A12C A41G] the self-cleavage was 0.03.
With GGCAGAGCUCACCACAGCGUGGCAAAGUGGCUGUGGCUAGUCUGCC [A12C A41U] the self-cleavage was 0.03.
GGCAGAGCUCACCACAGCGUGGCAAAGUGGCUGUGGCUAGCCUGCC [A12C A41C] gave a self-cleavage of 0.02.
For GGCAGAGCUCACCACAGCGUGGCAAAGUGGCUGUGGCUAGACUGCC [A12C], the self-cleavage was 0.03.
Work on GGCAGAGCUCUACACAGCGUGGCAAAGUGGCUGUGGCUAGACUGCG [A11U C46G] yielded a self-cleavage of 0.06.
Variant GGCAGAGCUCUACACAGCGUGGCAAAGUGGCUGUGGCUAGACUGCU [A11U C46U] has a self-cleavage of 0.12.
For GGCAGAGCUCUACACAGCGUGGCAAAGUGGCUGUGGCUAGACUGCA [A11U C46A], the self-cleavage was 0.09.
For GGCAGAGCUCACCACAGCGUGGCAAAGUGGCUGUGGCUUGACUGCC [A12C A39U], the self-cleavage was 0.02.
Variant GGCAGAGCUCACCACAGCGUGGCAAAGUGGCUGUGGCUGGACUGCC [A12C A39G] has a self-cleavage of 0.
In the case of GGCAGAGCUCACCACAGCGUGGCAAAGUGGCUGUGGCUCGACUGCC [A12C A39C], the self-cleavage is reported as 0.03.
GGCAGAGCUCUACACAGCGUGGCAAAGUGGCUGUGGCUAGUCUGCC [A11U A41U] gave a self-cleavage of 0.27.
GGCAGAGCUCUACACAGGGUGGCAAAGUGGCUGUGGCUAGACUGCC [A11U C18G] gave a self-cleavage of 0.04.
GGCAGAGCUCUACACAGAGUGGCAAAGUGGCUGUGGCUAGACUGCC [A11U C18A] gave a self-cleavage of 0.07.
GGCAGAGCUCUACACAGUGUGGCAAAGUGGCUGUGGCUAGACUGCC [A11U C18U] showed a self-cleavage of 0.32.
GGCAGAGCUCUACACAGCGAGGCAAAGUGGCUGUGGCUAGACUGCC [A11U U20A] showed a self-cleavage of 0.07.
GGCAGAGCUCUACACAGCGGGGCAAAGUGGCUGUGGCUAGACUGCC [A11U U20G] gave a self-cleavage of 0.16.
Work on GGCAGAGCUCUACACAGCGCGGCAAAGUGGCUGUGGCUAGACUGCC [A11U U20C] yielded a self-cleavage of 0.07.
For GGCAGAGCUCUACACAGCGUGGCAAAGUGGCUAUGGCUAGACUGCC [A11U G33A], the self-cleavage was 0.03.
In the case of GGCAGAGCUCUACACAGCGUGGCAAAGUGGCUUUGGCUAGACUGCC [A11U G33U], the self-cleavage is reported as 0.04.
Variant GGCAGAGCUCUACACAGCGUGGCAAAGUGGCUCUGGCUAGACUGCC [A11U G33C] has a self-cleavage of 0.02.
GGCAGAGCUCACCACAGCGUGGCGAAGUGGCUGUGGCUAGACUGCC [A12C A24G] showed a self-cleavage of 0.04.
In the case of GGCAGAGCUCACCACAGCGUGGCUAAGUGGCUGUGGCUAGACUGCC [A12C A24U], the self-cleavage is reported as 0.03.
Variant GGCAGAGCUCACCACAGCGUGGCCAAGUGGCUGUGGCUAGACUGCC [A12C A24C] has a self-cleavage of 0.01.
GGCAGAGCUCUACACAGCGUGGCAAACUGGCUGUGGCUAGACUGCC [A11U G27C] showed a self-cleavage of 0.14.
GGCAGAGCUCUACACAGCGUGGCAAAUUGGCUGUGGCUAGACUGCC [A11U G27U] gave a self-cleavage of 0.13.
For GGCAGAGCUCUACACAGCGUGGCAAAAUGGCUGUGGCUAGACUGCC [A11U G27A], the self-cleavage was 0.16.
Variant GGCAGAGCUCUACACAGCGUGGCAAAGUGGCUGAGGCUAGACUGCC [A11U U34A] has a self-cleavage of 0.04.
GGCAGAGCUCUACACAGCGUGGCAAAGUGGCUGGGGCUAGACUGCC [A11U U34G] showed a self-cleavage of 0.02.
GGCAGAGCUCUACACAGCGUGGCAAAGUGGCUGCGGCUAGACUGCC [A11U U34C] gave a self-cleavage of 0.05.
For GGCAGAGCUCUACACAGCGUGGCAAAGUGUCUGUGGCUAGACUGCC [A11U G30U], the self-cleavage was 0.18.
GGCAGAGCUCUACACAGCGUGGCAAAGUGCCUGUGGCUAGACUGCC [A11U G30C] gave a self-cleavage of 0.13.
Work on GGCAGAGCUCUACACAGCGUGGCAAAGUGACUGUGGCUAGACUGCC [A11U G30A] yielded a self-cleavage of 0.17.
GGCAGAGCUCUACACAUCGUGGCAAAGUGGCUGUGGCUAGACUGCC [A11U G17U] showed a self-cleavage of 0.03.
Variant GGCAGAGCUCUACACAACGUGGCAAAGUGGCUGUGGCUAGACUGCC [A11U G17A] has a self-cleavage of 0.04.
With GGCAGAGCUCUACACACCGUGGCAAAGUGGCUGUGGCUAGACUGCC [A11U G17C] the self-cleavage was 0.12.

Reference: the RNAGym collection of RNA variant scans (doi:10.7554/elife.90254)
